3 proteins from article doi:10.1101/2021.12.20.473529 (bioRxiv, 2021) can be followed below.

Sequences and labels used below:
B1: HNF-1A DD-DBD (HNF-1A 1-279), wild type (domain or fragment, human, UniProt P20823 1-279, looked up)
chain: MVSKLSQLQTELLAALLESGLSKEALIQALGEPGPYLLAGEGPLDKGESCGGGRGELAELPNGLGETRGSEDETDDDGEDFTPPILKELENLSPEEAAHQKAVVETLLQEDPWRVAKMVKSYLQQHNIPQREVVDTTGLNQSHLSQHLNKGTPMKTQKRAALYTWYVRKQREVAQQFTHAGQGGLIEEPTGDELPTKKGRRNRFKWGPASQQILFQAYERQKNPSKEERETLVEECNRAECIQRGVSPSQAQGLGSNLVTEVRVYNWFANRRKEEAFRH
B2: HNF-1A DD-DBD/R263C (domain or fragment, human, UniProt P20823 1-279, looked up)
chain: MVSKLSQLQTELLAALLESGLSKEALIQALGEPGPYLLAGEGPLDKGESCGGGRGELAELPNGLGETRGSEDETDDDGEDFTPPILKELENLSPEEAAHQKAVVETLLQEDPWRVAKMVKSYLQQHNIPQREVVDTTGLNQSHLSQHLNKGTPMKTQKRAALYTWYVRKQREVAQQFTHAGQGGLIEEPTGDELPTKKGRRNRFKWGPASQQILFQAYERQKNPSKEERETLVEECNRAECIQRGVSPSQAQGLGSNLVTEVCVYNWFANRRKEEAFRH
B3: HNF-1A DD-DBD/N266S (domain or fragment, human, UniProt P20823 1-279, looked up)
chain: MVSKLSQLQTELLAALLESGLSKEALIQALGEPGPYLLAGEGPLDKGESCGGGRGELAELPNGLGETRGSEDETDDDGEDFTPPILKELENLSPEEAAHQKAVVETLLQEDPWRVAKMVKSYLQQHNIPQREVVDTTGLNQSHLSQHLNKGTPMKTQKRAALYTWYVRKQREVAQQFTHAGQGGLIEEPTGDELPTKKGRRNRFKWGPASQQILFQAYERQKNPSKEERETLVEECNRAECIQRGVSPSQAQGLGSNLVTEVRVYSWFANRRKEEAFRH

The data set concerns the molecule itself. In words: SEC-MALS.
A word on the stoichiometry N: it is a count of units in the complex or per binding partner. Regarding B1, the “stoichiometry N” value was 2. B2: the “stoichiometry N” value turned out to be 2. As for B3, the “stoichiometry N” value was 2.
